Measurements taken from PMC8441146, “DNA-guided photoactivatable probe-based chemical proteomics reveals the reader protein of mRNA methylation”.

Key:
[1] = target: T1, DDX1 lacking D2 domain (UniProt Q92499 1-450); assay: ITC; ITC: 20 mM Tris pH 7.5, 150 mM NaCl, 25 C; YTH labelling: 3 uM YTH, 12 uM BP/CP (200 mM NaCl chosen after optimization); pull-down: HeLa RIPA lysate, 4 C, UV 6; details: protein: recombinant; tags: pET28a, Ni-NTA purified (His)
T1 sequence: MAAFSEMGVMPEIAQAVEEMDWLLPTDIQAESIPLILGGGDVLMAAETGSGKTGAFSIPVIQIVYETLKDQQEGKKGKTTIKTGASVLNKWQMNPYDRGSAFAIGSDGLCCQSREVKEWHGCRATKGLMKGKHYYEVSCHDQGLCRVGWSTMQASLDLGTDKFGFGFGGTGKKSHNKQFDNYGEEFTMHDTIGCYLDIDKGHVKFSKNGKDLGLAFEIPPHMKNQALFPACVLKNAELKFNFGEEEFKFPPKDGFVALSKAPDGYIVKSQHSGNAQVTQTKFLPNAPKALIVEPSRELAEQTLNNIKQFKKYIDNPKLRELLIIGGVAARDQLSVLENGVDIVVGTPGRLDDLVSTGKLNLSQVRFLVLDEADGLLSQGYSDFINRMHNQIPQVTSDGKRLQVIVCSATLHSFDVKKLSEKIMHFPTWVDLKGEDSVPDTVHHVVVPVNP

[2] = target: T2, DDX1 (UniProt Q92499 1-728); assay: as above; details: protein: recombinant; tags: pET28a, Ni-NTA purified (His)
T2 sequence: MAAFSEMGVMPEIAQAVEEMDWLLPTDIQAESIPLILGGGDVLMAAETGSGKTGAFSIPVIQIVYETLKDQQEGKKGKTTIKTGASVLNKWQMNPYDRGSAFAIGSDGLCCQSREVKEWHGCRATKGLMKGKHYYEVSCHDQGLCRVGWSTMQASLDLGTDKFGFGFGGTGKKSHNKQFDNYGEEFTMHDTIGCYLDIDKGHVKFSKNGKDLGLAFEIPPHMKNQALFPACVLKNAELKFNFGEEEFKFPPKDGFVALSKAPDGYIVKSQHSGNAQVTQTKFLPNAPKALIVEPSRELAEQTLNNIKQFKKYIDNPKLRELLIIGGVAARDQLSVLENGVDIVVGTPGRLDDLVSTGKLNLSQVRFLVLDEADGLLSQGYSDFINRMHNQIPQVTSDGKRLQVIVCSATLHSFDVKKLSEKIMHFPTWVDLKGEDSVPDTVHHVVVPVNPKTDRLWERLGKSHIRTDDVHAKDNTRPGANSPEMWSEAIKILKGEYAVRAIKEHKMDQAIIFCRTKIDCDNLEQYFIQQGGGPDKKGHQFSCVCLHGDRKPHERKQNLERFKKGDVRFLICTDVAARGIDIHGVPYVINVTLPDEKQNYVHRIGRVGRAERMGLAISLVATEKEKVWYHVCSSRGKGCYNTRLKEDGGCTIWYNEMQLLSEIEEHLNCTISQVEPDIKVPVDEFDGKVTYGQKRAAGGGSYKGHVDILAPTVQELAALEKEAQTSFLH

B1: Am-modified ssRNA (ITC) (ssRNA)
RNA: AAGAUC
modifications: 2'-O-methyl A
- binding result [1]: no binding
- binding result [2]: binds
